pKd: −log10 of the molar value. Where “and” joins values, the source holds several entries; their conditions need not be identical. Identical values can stand only once. Like-named read-outs stand apart in the source and are kept apart here.
Experiments:
[1] = biological target: N7 neuraminidase from A/Netherlands/078/03 (Influenza A virus A/Netherlands/078/03); experiment: flow cytometry, NA transiently expressed on Expi-CHO cells
[2] = biological target: N2 neuraminidase from A/Washington/01/2007 (Influenza A virus A/Washington/01/2007); experiment: as above
[3] = biological target: N4 A/MALLARD DUCK/…/30/2011 (Influenza A virus); experiment: as above
[4] = biological target: B/WISCONSIN/1/2010 (YAMAGATA) (Influenza B virus); experiment: as above
[5] = biological target: IBV neuraminidase from B/Malaysia/2506/2004 (Victoria) (Influenza B virus B/Malaysia/2506/2004); experiment: as above
[6] = biological target: N3 neuraminidase from A/Canada/rv504/2004 (Influenza A virus A/Canada/rv504/2004); experiment: as above
[7] = biological target: N1 neuraminidase from A/Stockholm/18/2007 (Influenza A virus A/Stockholm/18/2007); experiment: as above
[8] = biological target: IBV neuraminidase from B/Yamanashi/166/1998 (Yamagata) (Influenza B virus B/Yamanashi/166/1998); experiment: as above
[9] = biological target: N2 A/HONG KONG/68 (Influenza A virus); experiment: as above
[10] = biological target: N2 neuraminidase from A/Leningrad/134/17/57 (Influenza A virus A/Leningrad/134/17/57) (UniProt Q67214); experiment: as above
[11] = biological target: N5 A/AQUATIC BIRD/KOREA/CN5/2009 (Influenza A virus); experiment: as above
[12] = biological target: N6 neuraminidase from A/swine/Ontario/01911/1/99 (Influenza A virus A/swine/Ontario/01911/1/99); experiment: as above
[13] = biological target: IBV neuraminidase from B/Lee/10/1940 (Ancestral) (Influenza B virus B/Lee/10/1940) (UniProt P03474); experiment: as above
[14] = biological target: N9 neuraminidase from A/Anhui/1/2013 (Influenza A virus A/Anhui/1/2013 (H7N9)); experiment: as above
[15] = biological target: N8 A/HARBOR SEAL/NEW …/179629/2011 (Influenza A virus); experiment: as above
[16] = biological target: B/MALAYSIA/3120318925/2013 (YAMAGATA) (Influenza B virus); experiment: as above
N9 [17] = experiment: Bio-Layer Interferometry (BLI); printed as kdis
N2 [18] = experiment: Bio-Layer Interferometry (BLI); printed as kdis
N1 [19] = experiment: Bio-Layer Interferometry (BLI); printed as kdis
N9 [20] = experiment: Bio-Layer Interferometry (BLI)
N2 [21] = experiment: Bio-Layer Interferometry (BLI)
N1 [22] = experiment: Bio-Layer Interferometry (BLI)
human FcγRIIb (human) [23] = biological target: human FcγRIIb (human) (UniProt P31994); experiment: MSD [cont'd]
[24] = biological target: human FcγRIIa (R131 allele) (human) (UniProt P12318); experiment: MSD [cont'd]
[25] = biological target: human FcγRIIIa (F158 allele) (human) (UniProt P08637); experiment: MSD [cont'd]
human FcγRIIIb (human) [26] = biological target: human FcγRIIIb (human) (UniProt O75015); experiment: MSD [cont'd]
[27] = biological target: human FcγRIIIa (V158 allele) (human) (UniProt P08637); experiment: MSD [cont'd]
human FcRn (human) [28] = biological target: human FcRn (human) (UniProt P55899); experiment: MSD [cont'd]
[29] = biological target: human FcγRIIa (H131 allele) (human) (UniProt P12318); experiment: MSD [cont'd]
[30] = biological target: human FcγRIIIa (F158 allele) (human) (UniProt P08637)
[31] = biological target: human FcγRIIIa (V158 allele) (human) (UniProt P08637)
human FcγRIIb (human) [32] = biological target: human FcγRIIb (human) (UniProt P31994); experiment: MSD
human C1q (human) = human C1q (human) (UniProt P02745); experiment: MSD [cont'd]
human FcγRIIb (human) [33] = biological target: human FcγRIIb (human) (UniProt P31994); experiment: Table B summary, vs fucosylated wild-type human IgG1
human FcγRIIb (human) [34] = biological target: human FcγRIIb (human) (UniProt P31994)
[35] = biological target: human FcγRIIIa (F158 allele) (human) (UniProt P08637); remark: listed apart in the source
[36] = biological target: human FcγRIIIa (V158 allele) (human) (UniProt P08637); remark: listed apart in the source
[37] = biological target: human FcγRIIa (H131 allele) (human) (UniProt P12318)
[38] = biological target: human FcγRIIa (R131 allele) (human) (UniProt P12318); experiment: MSD
[39] = biological target: human FcγRIIIa (F158 allele) (human) (UniProt P08637); experiment: MSD
human FcγRIIIb (human) [40] = biological target: human FcγRIIIb (human) (UniProt O75015); experiment: MSD
[41] = biological target: human FcγRIIIa (V158 allele) (human) (UniProt P08637); experiment: MSD
[42] = biological target: human FcγRIIa (H131 allele) (human) (UniProt P12318); experiment: MSD
[43] = biological target: N1 neuraminidase from A/Swine/Jiangsu/J004/2018 (Influenza A virus A/Swine/Jiangsu/J004/2018 (H1N1)); experiment: flow cytometry, cells infected with A/Swine/Jiangsu/J004/2018, antibody 2 µg/ml
[44] = biological target: N1 neuraminidase from A/Swine/Jiangsu/J004/2018 (Influenza A virus A/Swine/Jiangsu/J004/2018 (H1N1))
[45] = biological target: N2 neuraminidase from A/South Australia/34/2019 (Influenza A virus A/South Australia/34/2019)
[46] = biological target: B/BRISBANE/60/2008 (VICTORIA) (Influenza B virus); experiment: flow cytometry, NA transiently expressed on Expi-CHO cells
[47] = biological target: N1 neuraminidase from A/Swine/Jiangsu/J004/2018 (Influenza A virus A/Swine/Jiangsu/J004/2018 (H1N1)); experiment: flow cytometry, cells infected with A/Swine/Jiangsu/J004/2018, antibody 10 µg/ml
[48] = biological target: N1 neuraminidase from A/Swine/Jiangsu/J004/2018 (Influenza A virus A/Swine/Jiangsu/J004/2018 (H1N1)); experiment: flow cytometry, cells infected with A/Swine/Jiangsu/J004/2018, antibody 50 µg/ml
[49] = biological target: N1 neuraminidase from A/Swine/Jiangsu/J004/2018 (Influenza A virus A/Swine/Jiangsu/J004/2018 (H1N1)); remark: listed apart in the source
NA-9 = experiment: BLI, antibody loaded on the sensor (Loading Sample ID: FNI9), NA-9 as sample
[50] = biological target: N1 neuraminidase from A/Swine/Jiangsu/J004/2018 (Influenza A virus A/Swine/Jiangsu/J004/2018 (H1N1)); remark: listed apart in the source
N9 NA (FIGS. 96A-96C) = experiment: Bio-Layer Interferometry (BLI)
[51] = biological target: N2 neuraminidase from A/South Australia/34/2019 (Influenza A virus A/South Australia/34/2019); remark: listed apart in the source
human FcRn (human) [52] = biological target: human FcRn (human) (UniProt P55899); experiment: MSD, pH 6 [cont'd]

human FcγRIIIa (F158 allele) (human), sequence (P08637 17-208 limits assumed): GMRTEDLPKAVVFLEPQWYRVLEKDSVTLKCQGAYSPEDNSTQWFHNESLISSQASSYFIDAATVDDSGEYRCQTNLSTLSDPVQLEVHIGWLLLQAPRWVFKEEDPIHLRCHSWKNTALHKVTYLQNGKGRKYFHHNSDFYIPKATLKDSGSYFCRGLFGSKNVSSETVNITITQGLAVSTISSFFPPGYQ
human FcγRIIa (R131 allele) (human), sequence (P12318 34-218 H167R limits assumed): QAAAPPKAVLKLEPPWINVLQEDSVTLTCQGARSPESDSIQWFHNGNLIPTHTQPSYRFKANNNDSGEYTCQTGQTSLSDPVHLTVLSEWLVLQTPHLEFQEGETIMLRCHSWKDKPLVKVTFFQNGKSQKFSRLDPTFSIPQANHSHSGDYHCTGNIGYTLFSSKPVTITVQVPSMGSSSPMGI
human FcγRIIb (human), sequence (P31994 43-217 limits assumed): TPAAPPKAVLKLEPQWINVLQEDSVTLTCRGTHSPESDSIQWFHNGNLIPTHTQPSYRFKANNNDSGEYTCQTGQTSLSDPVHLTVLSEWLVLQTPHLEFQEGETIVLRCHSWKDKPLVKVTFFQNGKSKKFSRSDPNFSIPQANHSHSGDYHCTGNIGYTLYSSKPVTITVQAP
human C1q (human), sequence (P02745 23-245 limits assumed, chain 1 of 3): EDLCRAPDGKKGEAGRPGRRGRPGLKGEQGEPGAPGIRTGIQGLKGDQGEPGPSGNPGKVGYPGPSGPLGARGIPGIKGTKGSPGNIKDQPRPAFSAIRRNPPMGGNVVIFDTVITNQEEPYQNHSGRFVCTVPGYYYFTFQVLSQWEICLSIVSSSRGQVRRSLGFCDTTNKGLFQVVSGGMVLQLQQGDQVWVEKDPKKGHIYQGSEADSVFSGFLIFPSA
human C1q (human), sequence (P02746 28-253 limits assumed, chain 2 of 3, further chain): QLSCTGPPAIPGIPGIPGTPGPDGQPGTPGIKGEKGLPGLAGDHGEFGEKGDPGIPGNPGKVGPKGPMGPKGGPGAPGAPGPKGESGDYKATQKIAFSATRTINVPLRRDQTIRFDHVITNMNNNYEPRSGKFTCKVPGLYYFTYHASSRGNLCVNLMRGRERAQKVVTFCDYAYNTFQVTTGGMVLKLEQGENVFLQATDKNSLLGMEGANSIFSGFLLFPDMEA
human C1q (human), sequence (P02747 29-245 limits assumed, chain 3 of 3, further chain): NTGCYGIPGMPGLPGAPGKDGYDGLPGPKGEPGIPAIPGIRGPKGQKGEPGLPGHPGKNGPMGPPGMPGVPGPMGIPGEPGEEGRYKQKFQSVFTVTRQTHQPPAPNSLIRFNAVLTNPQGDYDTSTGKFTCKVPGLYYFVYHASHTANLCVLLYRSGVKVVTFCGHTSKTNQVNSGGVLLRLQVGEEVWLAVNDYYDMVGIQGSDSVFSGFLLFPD
human FcRn (human), sequence (P55899 24-297 limits assumed, chain 1 of 2): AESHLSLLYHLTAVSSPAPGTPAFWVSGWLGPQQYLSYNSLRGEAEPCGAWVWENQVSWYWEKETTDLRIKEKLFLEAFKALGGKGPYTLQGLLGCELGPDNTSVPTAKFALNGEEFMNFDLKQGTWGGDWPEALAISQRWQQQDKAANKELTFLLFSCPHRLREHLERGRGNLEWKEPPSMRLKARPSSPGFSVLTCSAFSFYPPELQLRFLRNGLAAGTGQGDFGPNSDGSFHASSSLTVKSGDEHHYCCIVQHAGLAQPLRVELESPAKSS
human FcRn (human), sequence (chain, as listed by the source limits assumed, chain 2 of 2): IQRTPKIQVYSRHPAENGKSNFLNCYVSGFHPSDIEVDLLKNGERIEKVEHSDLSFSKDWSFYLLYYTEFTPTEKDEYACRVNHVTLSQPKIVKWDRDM
human FcγRIIIa (V158 allele) (human), sequence (P08637 17-208 F176V limits assumed): as the sequence (P08637 17-208 limits assumed) above, with F160V counted along it
human FcγRIIa (H131 allele) (human), sequence (P12318 34-218 limits assumed): as the sequence (P12318 34-218 H167R limits assumed) above, with R134H counted along it
human FcγRIIIb (human), sequence (O75015 17-200 limits assumed): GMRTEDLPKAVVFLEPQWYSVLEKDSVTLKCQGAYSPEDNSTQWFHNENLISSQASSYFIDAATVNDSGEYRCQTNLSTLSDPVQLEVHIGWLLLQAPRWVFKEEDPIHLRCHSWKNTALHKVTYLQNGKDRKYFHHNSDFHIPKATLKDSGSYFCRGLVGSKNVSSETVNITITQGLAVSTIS

## 1G01 (antibody)
[1]
  lowest concentration at which binding was observed (EC50 scale class): 0.4 µg/mL
[2]
  lowest concentration at which binding was observed (EC50 scale class): 0.4 µg/mL
[3]
  lowest concentration at which binding was observed (EC50 scale class): 0.4 µg/mL
[4]
  lowest concentration at which binding was observed (EC50 scale class): 2 µg/mL
[5]
  lowest concentration at which binding was observed (EC50 scale class): 0.4 µg/mL
[6]
  lowest concentration at which binding was observed (EC50 scale class): 0.4 µg/mL
[7]
  lowest concentration at which binding was observed (EC50 scale class): 0.4 µg/mL
[8]
  lowest concentration at which binding was observed (EC50 scale class): 2 µg/mL
[9]
  lowest concentration at which binding was observed (EC50 scale class): 0.4 µg/mL
[10]
  lowest concentration at which binding was observed (EC50 scale class): 0.4 µg/mL
[11]
  lowest concentration at which binding was observed (EC50 scale class): 2 µg/mL
[12]
  lowest concentration at which binding was observed (EC50 scale class): 0.4 µg/mL
[13]
  lowest concentration at which binding was observed (EC50 scale class): 10 µg/mL
[14]
  lowest concentration at which binding was observed (EC50 scale class): 0.4 µg/mL
[15]
  lowest concentration at which binding was observed (EC50 scale class): 0.4 µg/mL
[16]
  lowest concentration at which binding was observed (EC50 scale class): 10 µg/mL
N9 [17]
  koff: < 1e-07 s⁻¹
N2 [18]
  koff: < 1e-07 s⁻¹
N1 [19]
  koff: 4.79e-05 s⁻¹
N9 [20]
  pKd: > 12.00
  kon: 106000 M⁻¹ s⁻¹
N2 [21]
  pKd: > 12.00
  kon: 40200 M⁻¹ s⁻¹
N1 [22]
  pKd: 9.06
  kon: 55100 M⁻¹ s⁻¹

## G236R_L328R-afuc (antibody)
Human FcγRIIb (human) [23]
  fold to wt-fucose: 0.17 fold
[24]
  fold to wt-fucose: 0.24 fold
[25]
  fold to wt-fucose: 0.33 fold
Human FcγRIIIb (human) [26]
  fold to wt-fucose: 0.6 fold
[27]
  fold to wt-fucose: 0.07 fold
Human FcRn (human) [28]
  fold to wt-fucose: 1.09 fold
[29]
  fold to wt-fucose: 0.16 fold
[30]
  FcγR reporter signaling, fold to wt-fucose [cont'd]: 0.05 fold
[31]
  FcγR reporter signaling, fold to wt-fucose [cont'd]: 0.2 fold
Human FcγRIIb (human) [32]
  fold-change (reference not given): 0.2 fold

## IgG1 antibody with Fc variant G236S_G420V_G446E_L309T
Human C1q (human)
  fold-change vs wt: 0.21 fold
Human FcRn (human) [28]
  fold-change vs wt: 0.77 fold
Human FcγRIIb (human) [33]
  fold-change in binding vs fucosylated wild-type human IgG1: 0.5 fold
Human FcγRIIb (human) [34]
  FcγR reporter signaling, fold-change vs wt [cont'd]: 0.22 fold
[35]
  FcγR reporter signaling, fold-change vs wt [cont'd]: 0.03 fold
[36]
  FcγR reporter signaling, fold-change vs wt [cont'd]: 0.06 fold
[37]
  FcγR reporter signaling, fold-change vs wt [cont'd]: 2.56 fold
Human FcγRIIb (human) [32]
  fold-change vs wt: 0.39 fold
[38]
  fold-change vs wt: 1.47 fold
[39]
  fold-change vs wt: 0.32 fold
Human FcγRIIIb (human) [40]
  fold-change vs wt: 0.56 fold
[41]
  fold-change vs wt: 0.09 fold
[42]
  fold-change vs wt: 4.85 fold

## FNI9 (antibody)
[43]
  % of cells in the Alexa 647-A positive gate: 82.1%
[44]
  % of cells in the Alexa 647-A positive gate: 78%
[45]
  % Alexa 647-A+ cells: 57% and 68.8%
[1]
  lowest concentration at which binding was observed (EC50 scale class): 50 µg/mL
[3]
  lowest concentration at which binding was observed (EC50 scale class): 0.4 µg/mL
[4]
  lowest concentration at which binding was observed (EC50 scale class): 0.4 µg/mL
[5]
  lowest concentration at which binding was observed (EC50 scale class): 0.4 µg/mL
[6]
  lowest concentration at which binding was observed (EC50 scale class): 0.4 µg/mL
[7]
  lowest concentration at which binding was observed (EC50 scale class): 0.4 µg/mL
[8]
  lowest concentration at which binding was observed (EC50 scale class): 0.4 µg/mL
[9]
  lowest concentration at which binding was observed (EC50 scale class): 0.4 µg/mL
[12]
  lowest concentration at which binding was observed (EC50 scale class): 0.4 µg/mL
[14]
  lowest concentration at which binding was observed (EC50 scale class): 0.4 µg/mL
[15]
  lowest concentration at which binding was observed (EC50 scale class): 50 µg/mL
[46]
  lowest concentration at which binding was observed (EC50 scale class): 0.4 µg/mL
[16]
  lowest concentration at which binding was observed (EC50 scale class): 0.4 µg/mL
[47]
  % of cells in the Alexa 647-A positive gate: 83.5%
[48]
  % of cells in the Alexa 647-A positive gate: 84%
[49]
  % Alexa 647-A+ cells: 82.1% and 78%
NA-9
  pKd: 10.06
[50]
  % Alexa 647-A+ cells: 84% and 83.5%
N9 [20]
  pKd: > 12.00
N2 [21]
  pKd: > 12.00
N1 [22]
  pKd: 10.79
N9 NA (FIGS. 96A-96C)
  pKd: > 12.00
[51]
  % Alexa 647-A+ cells: 66.1% and 71.3%

## IgG1 antibody with Fc variant G236A_R292P
Human C1q (human)
  fold-change to WT Fc: 0.125 fold
  fold-change vs wt: 0.13 fold
[25]
  fold-change to WT Fc: 0.603 fold
[27]
  fold-change to WT Fc: 0.411 fold
Human FcRn (human) [28]
  fold-change vs wt: 0.81 fold
Human FcγRIIb (human) [33]
  fold-change in binding vs fucosylated wild-type human IgG1: 0.5 fold
Human FcγRIIb (human) [34]
  FcγR reporter signaling, fold-change vs wt [cont'd]: 0.15 fold
[35]
  FcγR reporter signaling, fold-change vs wt [cont'd]: 0.29 fold
[36]
  FcγR reporter signaling, fold-change vs wt [cont'd]: 0.54 fold
[37]
  FcγR reporter signaling, fold-change vs wt [cont'd]: 1.47 fold
Human FcγRIIb (human) [32]
  fold-change to WT Fc: 0.446 fold
  fold-change vs wt: 0.45 fold
[38]
  fold-change to WT Fc: 1.04 fold
  fold-change vs wt: 1.04 fold
[39]
  fold-change vs wt: 0.6 fold
Human FcγRIIIb (human) [40]
  fold-change vs wt: 0.95 fold
[41]
  fold-change vs wt: 0.41 fold
[42]
  fold-change to WT Fc: 5.65 fold
  fold-change vs wt: 5.65 fold
Human FcRn (human) [52]
  fold-change to WT Fc: 0.809 fold

From US20260184814A1, “BROADLY NE[…] INFLUENZA NEURAMINIDASE” (priority 2022, published 2026)
